Values belong to the molecule of their own block, whether it stands above or below them.
Legend:
Wnt signaling = assay: TCF/LEF-luc reporter assay in Wnt-3A-treated HEK293 cells; assay type: cell-based; conditions: Wnt3A conditioned medium plus 500 nM, 16 hours at 37° C.
Description: HEK293 cells were plated into six-well plates. For each well, 0.1 μg of the TOP-FLASHTCF luciferase construct (Upstate Biotechnology) was cotransfected with 0.8 μg Mesd-expressing vector, 0.8 μg Mesd mutant-expressing vector, or empty vector. A β-galactosidase-expressing vector (Promega, Madison, Wis.) was included as an internal control for transfection efficiency. After 48 hours, cells were lysed and both luciferase and β-galactosidase activities were determined with enzyme assay kits (Promega). The luciferase activity was determined with a luminometer using the Dual Luciferase Assay system (Promega). Luciferase activity was normalized to the activity of the β-galactosidase.
In these experiments, transfected cells were treated without Wnt-3A or with Wnt-3A plus the indicated inhibitors (Mesd and/or Dkk1) for 16 hours at 37° C. Wnt signaling was measured by quantifying the luciferase activity using a live cell imaging system.

LRP6 [1] = target: T1, LRP6 (Homo sapiens, UniProt O75581); assay: LRP6-mediated 125I-Mesd degradation in LRP6-transduced HT1080 cells; assay type: cell-based; conditions: 500 nM unlabeled competitor, 4 hours at 37° C.
T1 construct: expressed in transfected cells; host or cells: human HT1080 cells, retroviral vector pLNCX2
Description: Ligand degradation was performed using the methods as described in Li, Y., et al., J. Biol. Chem. 275: 17187-17194, 2000. Briefly, 2×10^5 cells were seeded into 12-well dishes 1 day prior to assay. Pre-warmed assay buffer (minimal Eagle's medium containing 0.6% BSA with radioligand, 0.6 ml/well) was added to cell monolayers in the absence or the presence of unlabeled 500 nM RAP or 500 nM Mesd, followed by incubation for 4 hours at 37° C. Thereafter, the medium overlying the cell monolayers was removed and proteins were precipitated by addition of BSA to 10 mg/ml and trichloroacetic acid to 20%. Degradation of radioligand was defined as the appearance of radioactive fragments in the overlying medium that were soluble in 20% trichloroacetic acid. Kinetic analysis of endocytosis LRP6-transduced HT1080 cells were plated in 12-well plates at a density of 2×10^5 cells/well and used after overnight culture. Cells were rinsed twice in ice-cold assay buffer (minimal Eagle's medium containing 0.6% BSA), and ^125I-anti-HA IgG was added at 1 nM final concentration in cold assay buffer (0.5 ml/well). The binding of ^125I-anti-HA IgG was carried out at 4° C. for 90 minutes with gentle rocking Unbound ^125I-anti-HA IgG was removed by washing cell monolayers three times with cold assay buffer. Ice-cold stop/strip solution (0.2 M acetic acid, pH 2.6, 0.1 M NaCl) was added to one set of plates without warming up and kept on ice. The remaining plates were then placed in a 37° C. water bath and 0.5 ml assay buffer prewarmed to 37° C. was quickly added to cell monolayers to initiate internalization. After each time point, the plates were quickly placed on ice and the assay buffer was replaced with cold stop/strip solution. ^125I-anti-HA IgG that remained on the cell surface was stripped by incubation of cell monolayers with cold stop/strip solution for a total of 20 minutes (0.75 ml for 10 minutes, twice) and counted. Cell monolayers were then solubilized with low-SDS lysis buffer and counted. […] The fraction of internalized ^125I-anti-HA IgG after each time point was calculated and plotted. […]

LRP6 [2] = target: T1, LRP6; assay: 125I-RAP binding to LRP6-transduced HT1080 cells; conditions: 125I-RAP 5 nM, 4 hours at 4° C.
Description: (§1) Cells (2×10^5) were seeded into 12-well dishes 1 day prior to assay. Ligand-binding buffer (minimal Eagle's medium containing 0.6% BSA with a different concentration of radioligand, 0.6 ml/well) was added to cell monolayers, in the absence or the presence of 500 nM unlabeled RAP or 500 nM unlabeled Mesd, followed with incubation for 0-4 hours at 4° C. Thereafter, overlying buffer containing unbound ligand was removed, and cell monolayers were washed and lysed in low-SDS lysis buffer (62.5 mM Tris-HCl pH 6.8, 0.2% SDS, 10% v/glycerol) and counted.
Receptor-associated protein (RAP) binds with high affinity to LRP, megalin, VLDLR and apoER2, and with a lower affinity to the LDLR (Bu, G., Int. Rev. Cytol. 209, 79-116. 2001). To determine whether RAP and Mesd bind to identical, overlapping, or different sites on the receptors, we performed binding and competition analysis of these two chaperones with HT1080 cells stably expressing LRP6.
In FIG. 8A, binding of ^125I-RAP (5 nM) to LRP6-transduced HT1080 cells and the control cells was carried out for 4 hours at 4° C. in the absence (total) or presence of 500 nM RAP, or 500 nM Mesd. In FIG. 8B, binding of^125I-Mesd (5 nM) to LRP6-transduced HT1080 cells was carried out for 2 hours at 4° C. in the absence (total) or presence of various concentrations of RAP or 500 nM Mesd. […]

LRP6 [3] = target: T1, LRP6; assay: Competition for 125I-Mesd binding to cell surface LRP6
Description: (§2) To examine whether Mesd binds with high affinity to most members of the LDLR family at the cell surface, we performed cell surface ligand binding experiments with cells stably transduced with LRP6 cDNA. Human HT1080 cells, which express undetectable levels of LRP6, were transduced with a viral vector alone (pLNCX2) or with vector containing LRP6 cDNA (Li, Y., Oncogene 23: 9129-9135, 2004) and used for ^125I-Mesd binding (FIG. 1A). ^125I-Mesd (5 nM) reached maximal binding after 2 hours incubation at 4° C. with LRP6-expressing HT1080 cells (FIG. 1A).
as §1
We performed binding of 5 nM ^125I-Mesd (5 nM) to cell surface LRP6 in the presence of various concentrations of excess unlabeled RAP or 500 nM unlabeled Mesd (FIG. 8B). RAP inhibited ^125I-Mesd binding in a dose-dependent manner with ˜60% inhibition achieved with 500 nM RAP, whereas the same concentration of unlabeled Mesd inhibited >90% of ^125I-Mesd binding (FIG. 8B). […] The lower affinity of RAP to cell surface LRP6 may also contribute to its lower efficiency in inhibition of Mesd binding.
In FIG. 8A, binding of ^125I-RAP (5 nM) to LRP6-transduced HT1080 cells and the control cells was carried out for 4 hours at 4° C. in the absence (total) or presence of 500 nM RAP, or 500 nM Mesd. In FIG. 8B, binding of^125I-Mesd (5 nM) to LRP6-transduced HT1080 cells was carried out for 2 hours at 4° C. in the absence (total) or presence of various concentrations of RAP or 500 nM Mesd. (C) LRP6-mediated ^125I-Mesd (5 nM) degradation was carried out for 4 hours at 37° C. in the absence or presence of 500 nM Mesd or 500 nM RAP. Values are the means of triple determinations with the s.d. indicated by error bars.
(§3) In order to investigate the binding of Mesd polypeptide and an Mesd oligopeptide to either LRP5 or LRP6, binding assays were performed using ^125I-Mesd or ^125I-DKK1 (FIG. 10).

LRP6 [4] = target: T1, LRP6; assay: 125I-DKK1 binding to LRP6; conditions: 500 nM unlabeled, 125I-DKK1 5 nM, 3 hours at 4° C.
Description: as §1
RAP is a receptor antagonist for members of the LDLR family, and is able to inhibit the binding of most known ligands of the LDLR family members. DKK1 is an LRP6-specific ligand and antagonist. […] In these experiments, Serum-free conditioned medium was harvested from HEK293 cells transiently transfected with cDNA for human Myc-DKK1 and allowed to bind to LRP6-transduced HT1080 cells (B,C) and control cells (A) in the absence (A,B) or presence (C) of 1 μM Mesd. Cell-surface-bound Myc-tagged DKK proteins were fixed and detected by immunofluorescence staining with anti-Myc antibody. (D) DKK1 binding to cell surface LRP6 is inhibited by Mesd. Binding of 125I-DKK1 (5 nM) to LRP6-transduced HT1080 cells or the control cells was carried out for 3 hours at 4° C. in the absence (total) or presence of 500 nM RAP or 500 nM Mesd. […]

LRP6 [5] = target: T1, LRP6; assay: LRP6-mediated 125I-DKK1 degradation in LRP6-transduced HT1080 cells; assay type: cell-based; conditions: 500 nM unlabeled, 4 hours at 37° C.
Description: Ligand degradation was performed using the methods as described in Li, Y., et al., J. Biol. Chem. 275: 17187-17194, 2000. Briefly, 2×10^5 cells were seeded into 12-well dishes 1 day prior to assay. Pre-warmed assay buffer (minimal Eagle's medium containing 0.6% BSA with radioligand, 0.6 ml/well) was added to cell monolayers in the absence or the presence of unlabeled 500 nM RAP or 500 nM Mesd, followed by incubation for 4 hours at 37° C. Thereafter, the medium overlying the cell monolayers was removed and proteins were precipitated by addition of BSA to 10 mg/ml and trichloroacetic acid to 20%. […] After each time point, the plates were quickly placed on ice and the assay buffer was replaced with cold stop/strip solution. ^125I-anti-HA IgG that remained on the cell surface was stripped by incubation of cell monolayers with cold stop/strip solution for a total of 20 minutes (0.75 ml for 10 minutes, twice) and counted. Cell monolayers were then solubilized with low-SDS lysis buffer and counted. […] The fraction of internalized ^125I-anti-HA IgG after each time point was calculated and plotted.
RAP is a receptor antagonist for members of the LDLR family, and is able to inhibit the binding of most known ligands of the LDLR family members. […] Cell-surface-bound Myc-tagged DKK proteins were fixed and detected by immunofluorescence staining with anti-Myc antibody. […]

LRP6 [6] = target: T1, LRP6; assay: 125I-Mesd cell surface binding to LRP6-transduced HT1080 cells; conditions: LRP6-transduced HT1080 cells
Description: as §2
(A) Time course of ^125I-Mesd (5 nM) binding to LRP6-transduced HT1080 cells and the control cells. Assay was carried out for the indicated periods at 4° C. in the absence (total) or presence of 500 nM Mesd (non-specific). (B) Saturation binding of ^125I-Mesd to LRP6-transduced HT1080 cells and the control cells. Assay was carried out at indicated concentrations for 3 hours at 4° C. in the absence (total) or presence (non-specific) of 500 nM Mesd. (C) Scatchard plots of data in B. All values are the average of triple determinations with the s.d. indicated by error bars.
as §1
To analyze the Mesd sequences that are required for Mesd to bind to mature LRP6 at the cell surface with high affinity, sequences were compared between mouse Mesd and its homologs from different species. […] We thus generated two truncated Mesd mutants lacking either the N-terminal region, MESD (12-195), or both the N-terminal and C-terminal regions, Mesd (12-155) (FIG. 3A). The ability of these mutants to bind to cell surface LRP6 was then assessed.
In this example, a truncated Mesd mutant containing the last 45 amino acids of C-terminal region was generated (FIG. 3A) and its binding affinity for LRP6 was then analyzed. […] (A) Binding analyses of ^125I-Mesd and its mutant Mesd (150-195) (5 nM) to LRP6-transduced HT1080 cells and control cells. (B) Binding analyses of ^125I-Mesd and its mutant Mesd (150-195) (5 nM) to LRP6-transduced HT1080 cells. Assays were carried out for 3 hours at 4° C. in the absence or presence of 500 nM Mesd or its mutant. Values are the means of triple determinations with the s.d. indicated by error bars.
LRP6-mediated Mesd uptake and degradation was investigated in the experiments illustrated in FIG. 7. (A) LRP6-mediated ^125I-Mesd (5 nM) degradation in LRP6-transduced HT1080 cells and control cells was carried out for 4 hours at 37° C. in the absence or presence of 500 nM Mesd. (B) ^125I-Mesd (5 nM) binding to LRP6-transduced HT1080 cells and the control cells was carried out for 4 hours at 4° C. in the absence or presence of 500 nM Mesd. Values are the means of triple determinations with the s.d. indicated by error bars.

LRP5 = LRP5 (Homo sapiens, UniProt O75197); assay: 125I-DKK1 binding to LRP5; conditions: FIG. 10B
Description: as §3

T1 sequence (O75581 20-1613): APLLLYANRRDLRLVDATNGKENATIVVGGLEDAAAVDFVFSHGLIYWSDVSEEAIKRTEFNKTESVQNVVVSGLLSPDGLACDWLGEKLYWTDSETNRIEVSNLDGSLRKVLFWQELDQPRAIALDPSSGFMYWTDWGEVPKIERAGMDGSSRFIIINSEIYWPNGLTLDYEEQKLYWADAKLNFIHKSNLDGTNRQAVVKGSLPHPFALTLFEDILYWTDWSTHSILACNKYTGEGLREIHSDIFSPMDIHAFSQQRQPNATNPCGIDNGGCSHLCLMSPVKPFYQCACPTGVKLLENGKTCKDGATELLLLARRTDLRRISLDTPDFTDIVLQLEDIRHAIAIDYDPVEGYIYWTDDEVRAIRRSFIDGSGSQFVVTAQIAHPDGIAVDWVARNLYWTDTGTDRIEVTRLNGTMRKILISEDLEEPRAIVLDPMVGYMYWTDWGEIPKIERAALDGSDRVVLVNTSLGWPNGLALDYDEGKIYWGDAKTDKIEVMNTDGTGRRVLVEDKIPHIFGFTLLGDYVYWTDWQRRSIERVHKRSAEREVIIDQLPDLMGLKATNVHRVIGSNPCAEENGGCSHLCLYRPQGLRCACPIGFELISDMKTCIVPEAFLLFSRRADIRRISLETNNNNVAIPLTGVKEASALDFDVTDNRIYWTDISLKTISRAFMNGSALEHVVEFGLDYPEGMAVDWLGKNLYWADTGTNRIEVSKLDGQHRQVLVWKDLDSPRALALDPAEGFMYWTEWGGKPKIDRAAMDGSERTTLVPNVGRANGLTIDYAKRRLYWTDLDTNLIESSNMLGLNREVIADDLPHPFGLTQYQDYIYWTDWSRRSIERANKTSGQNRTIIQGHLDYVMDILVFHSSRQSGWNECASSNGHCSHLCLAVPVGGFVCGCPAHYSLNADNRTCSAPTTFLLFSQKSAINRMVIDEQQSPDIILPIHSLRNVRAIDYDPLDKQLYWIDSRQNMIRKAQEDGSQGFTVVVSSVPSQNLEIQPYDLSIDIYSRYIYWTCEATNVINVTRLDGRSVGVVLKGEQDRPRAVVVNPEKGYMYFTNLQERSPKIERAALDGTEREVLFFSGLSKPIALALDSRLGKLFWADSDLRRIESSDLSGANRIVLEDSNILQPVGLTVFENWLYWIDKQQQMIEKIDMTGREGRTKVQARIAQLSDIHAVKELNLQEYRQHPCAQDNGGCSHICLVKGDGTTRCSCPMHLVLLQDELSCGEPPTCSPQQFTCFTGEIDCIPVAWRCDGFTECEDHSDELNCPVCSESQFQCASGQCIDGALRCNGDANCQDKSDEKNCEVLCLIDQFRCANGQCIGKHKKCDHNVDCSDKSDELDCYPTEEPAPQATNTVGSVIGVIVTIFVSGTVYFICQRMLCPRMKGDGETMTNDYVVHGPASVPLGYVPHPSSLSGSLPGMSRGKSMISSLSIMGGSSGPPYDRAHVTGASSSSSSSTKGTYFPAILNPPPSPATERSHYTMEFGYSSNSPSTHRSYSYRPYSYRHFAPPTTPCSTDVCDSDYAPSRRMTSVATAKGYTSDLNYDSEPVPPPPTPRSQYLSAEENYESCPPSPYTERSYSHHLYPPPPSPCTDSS
Sequence of LRP5 (O75197 32-1615): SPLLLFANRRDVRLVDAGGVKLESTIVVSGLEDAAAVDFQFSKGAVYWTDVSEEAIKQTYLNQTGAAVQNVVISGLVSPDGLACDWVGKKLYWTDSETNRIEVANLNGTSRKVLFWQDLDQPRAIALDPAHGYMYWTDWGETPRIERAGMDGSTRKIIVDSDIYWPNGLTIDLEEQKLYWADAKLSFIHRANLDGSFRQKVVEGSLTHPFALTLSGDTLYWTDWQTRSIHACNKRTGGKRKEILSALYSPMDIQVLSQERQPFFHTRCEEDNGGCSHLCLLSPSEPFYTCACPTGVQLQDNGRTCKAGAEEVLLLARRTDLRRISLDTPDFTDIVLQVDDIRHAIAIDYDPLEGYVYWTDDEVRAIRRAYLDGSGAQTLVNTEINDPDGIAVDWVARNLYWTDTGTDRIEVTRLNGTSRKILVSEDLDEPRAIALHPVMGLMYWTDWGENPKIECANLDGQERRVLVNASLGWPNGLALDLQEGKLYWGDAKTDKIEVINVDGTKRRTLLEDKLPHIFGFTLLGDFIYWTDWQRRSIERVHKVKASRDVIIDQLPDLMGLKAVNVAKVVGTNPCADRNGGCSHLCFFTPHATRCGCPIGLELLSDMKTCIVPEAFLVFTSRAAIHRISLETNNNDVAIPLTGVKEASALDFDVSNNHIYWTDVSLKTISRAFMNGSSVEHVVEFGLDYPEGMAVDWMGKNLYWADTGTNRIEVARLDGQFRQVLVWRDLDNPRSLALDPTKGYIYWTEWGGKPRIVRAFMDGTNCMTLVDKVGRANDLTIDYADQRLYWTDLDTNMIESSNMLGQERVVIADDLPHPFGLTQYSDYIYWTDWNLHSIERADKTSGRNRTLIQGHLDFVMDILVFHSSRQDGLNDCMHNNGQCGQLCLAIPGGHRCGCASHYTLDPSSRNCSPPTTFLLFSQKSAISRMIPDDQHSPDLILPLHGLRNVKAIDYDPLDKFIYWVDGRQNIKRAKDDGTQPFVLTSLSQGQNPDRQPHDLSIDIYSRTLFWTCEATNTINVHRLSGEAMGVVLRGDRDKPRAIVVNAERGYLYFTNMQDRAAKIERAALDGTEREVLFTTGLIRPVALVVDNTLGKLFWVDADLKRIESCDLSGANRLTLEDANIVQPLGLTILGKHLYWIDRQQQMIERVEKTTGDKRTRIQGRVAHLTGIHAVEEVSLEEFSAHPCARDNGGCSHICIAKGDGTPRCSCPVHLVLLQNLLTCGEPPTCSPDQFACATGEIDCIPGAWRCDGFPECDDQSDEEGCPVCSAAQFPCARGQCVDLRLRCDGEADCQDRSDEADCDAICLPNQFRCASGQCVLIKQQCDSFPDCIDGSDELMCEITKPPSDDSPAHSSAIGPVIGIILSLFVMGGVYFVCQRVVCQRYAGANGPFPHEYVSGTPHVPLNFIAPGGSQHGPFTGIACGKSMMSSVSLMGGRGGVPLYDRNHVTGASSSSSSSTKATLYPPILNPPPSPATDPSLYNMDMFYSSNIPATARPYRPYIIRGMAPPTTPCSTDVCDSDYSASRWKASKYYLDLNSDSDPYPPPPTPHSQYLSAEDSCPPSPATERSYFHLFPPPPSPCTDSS

Molecule: KGGGSKEKNKTKPEKAKKKEGDRKPRASKEDNRAGSR [Mesd WT peptide]
Inhibition of Wnt signaling (luciferase activity) (Wnt signaling): moderately inhibit

Inhibition of 125I-Mesd degradation (LRP6 [1]): only partially | Increase of RAP binding in LRP6 expressing HT1080 cells compared to control cells (LRP6 [2]): ~20% | Inhibition of 125I-Mesd binding to cell surface LRP6 (LRP6 [3]; 500 nM unlabeled competitor, 125I-Mesd 5 nM, 2 hours at 4° C.): ~60% | Effect on increased 125I-DKK1 binding of LRP6-expressing HT1080 cells (LRP6 [4]): not | Effect on increased 125I-DKK1 degradation of LRP6-expressing HT1080 cells (LRP6 [5]): not
Molecule: RAP: Human recombinant 39 kDa receptor-associated protein, expressed in a GST expression vector [reference compound]

Molecule: QMYPGKGGGSKEKNKTKPEKAKKKEGDPKPRASKEDNRAGSRREDL [Mesd (150-195)]
Binding of truncated Mesd mutants to cell surface LRP6 (LRP6 [6]): necessary and sufficient for LRP6 binding | Inhibition of Wnt signaling (luciferase activity) (Wnt signaling): moderately inhibit

Reduction of binding of 125I-Mesd to LRP6 (LRP6 [3]; FIG. 10C, compared with LRP5): even greater reduction | Reduction in binding of 125I-DKK1 to LRP5 (LRP5): small but significant reduction
Molecule: KGGGSKEKNKTKPEKAKKKEGDPKPRASKEDNRAGSR [SEQ ID NO: 20]

Binding of truncated Mesd mutants to cell surface LRP6 (LRP6 [6]): completely abolished LRP6 binding
B1: Mesd (12-155): Truncated mouse Mesd mutant lacking both the N-terminal and C-terminal regions (protein)
chain: RKKKDIRDYNDADMARLLEQWEKDDDIEEGDLPEHKRPSAPIDFSKLDPGKPESILKMTKKGKTLMMFVTVSGNPTEKETEEITSLWQGSLFNANYDVQRFIVGSDRAIFMLRDGSYAWEIKDFLVSQDRCAEVTLEGQMYPGK
modifications: left off: small tags and cut ends
notes: Truncated mouse Mesd mutant lacking both the N-terminal and C-terminal regions

Binding of truncated Mesd mutants to cell surface LRP6 (LRP6 [6]): no effect on LRP6 binding
B2: MESD (12-195): Truncated mouse Mesd mutant lacking the N-terminal region (protein)
chain: RKKKDIRDYNDADMARLLEQWEKDDDIEEGDLPEHKRPSAPIDFSKLDPGKPESILKMTKKGKTLMMFVTVSGNPTEKETEEITSLWQGSLFNANYDVQRFIVGSDRAIFMLRDGSYAWEIKDFLVSQDRCAEVTLEGQMYPGKGGGSKEKNKTKPEKAKKKEGDRKPRASKEDNRAGSRREDL
modifications: left off: small tags and cut ends
notes: Truncated mouse Mesd mutant lacking the N-terminal region

From patent US8198236B2, “Methods and compositions for the treatment of cancer” (Washington University, priority 2007, dated 2012)
